Biological target: recombinant human CD33 protein (human, UniProt P20138 18-259, limits assumed)
Experiment: ELISA, recombinant human CD33 coated on the plate, antibody as comparator

Sequence of recombinant human CD33 protein (P20138 18-259 limits assumed): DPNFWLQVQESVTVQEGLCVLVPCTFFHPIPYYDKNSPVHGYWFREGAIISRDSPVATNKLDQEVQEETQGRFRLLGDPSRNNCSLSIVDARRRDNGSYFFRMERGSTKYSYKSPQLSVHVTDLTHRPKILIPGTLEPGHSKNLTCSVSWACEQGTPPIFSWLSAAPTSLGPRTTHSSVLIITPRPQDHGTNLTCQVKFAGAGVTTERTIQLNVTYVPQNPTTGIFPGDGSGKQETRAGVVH

binding result: binds
B1: anti-CD33 antibody ANTI-CD33 (antibody, human IgG1, kappa, V domains shown)
VH: EVQLVQSGAEVKKPGSSVKVSCKASGYTITDSNIHWVRQAPGQSLEWIGYIYPYNGGTDYNQKFKNRATLTVDNPTNTAYMELSSLRSEDTAFYYCVNGNPWLAYWGQGTLVTVSS
VL: DIQLTQSPSTLSASVGDRVTITCRASESLDNYGIRFLTWFQQKPGKAPKLLMYAASNQGSGVPSRFSGSGSGTEFTLTISSLQPDDFATYYCQQTKEVPWSFGQGTKVEVKR
notes: also called ANTI-CD33 mAb; naked anti-CD33 antibody

Reference: patent publication US20260137794A1, “LIGAND-DRUG CONJUGATE AND USE THEREOF” (SYSTIMMUNE, INC., priority 2022, published 2026)
